Results taken from patent US20250034594A1, “RNA-GUIDED GENOME RECOMBINEERING AT KILOBASE SCALE” (THE BOARD OF TRUSTEES OF THE LELAND STANFORD JUNIOR …, priority 2021, published 2025).

Assays:
Assay type in all cases: cell-based
[1] = system: gene editing with Cas9 and dCas9; experiment: Screen of 322 new SSAP proteins, activity across all experiments (Cas9 and dCas9, Table 5); parameters: scale not given here
Excerpt: (§1) 322 new SSAP proteins were identified from sequence data, synthesized, and screened for activity with Cas9 and dCas9. Gene editing activities are shown below in Table 5, followed by amino acid sequences of the proteins.

gene editing with Cas9 = experiment: Screen of 322 new SSAP proteins, gene editing activity with Cas9 (Table 5); parameters: Cas9 with SSAP activity: scale not given here
Excerpt: as §1

gene editing with dCas9 = experiment: Screen of 322 new SSAP proteins, gene editing activity with dCas9 (Table 5); parameters: dCas9 with SSAP activity: scale not given here
Excerpt: as §1

Molecule | Activity across all experiments [1] | Cas9 with SSAP activity (gene editing with Cas9) | Cas9 with SSAP activity (normalized) (gene editing with Cas9) | dCas9 with SSAP activity (gene editing with dCas9) | dCas9 with SSAP activity (normalized) (gene editing with dCas9)
LambdaBet (MSTALATLAGKLAERVGMDSVDPQELITTLRQTAFKGDASDAQFIALLI) | −3.613 | −4.490 | −0.856 | −2.737 | −0.416
SSAP_273: SEQ ID NO: 442; Virgibacillus (multispecies) (protein, listed as Virgibacillus sp.) ATNDSVKNQIANKNQGSNQVNPNNLGLKQLLSTPTMRKKFDEVLDKKAPQFMSSLLNLYSNDSYLQKAEPMSVVTSALVAATLDLPIDKNLGYAWIVPYGGKAQFQLGYKGYIQLALRTGQYRNINVIEVYEGELKSFNRLTEEMELDFEQKQSDKVIGYTGYFELINGFRKTVYWSKEEIEKHKKRFSKSDFGWKKDWDAMAKKTVIRNMLNKWGILSIDMQKGIVEDNKDPIEKANEFDEQDIIEADFSEVNDDQEIDFSDAQ | 0.121 | −1.654 | −0.724 | 1.896 | 2.101
SSAP_132: SEQ ID NO: 301; Enterocloster clostridioformis (protein, listed as Enterocloster clostridioformis) GIDVKHELEKRAAGQDKPVKLTRNMTIADMVKALEPEIKRALPAILTPERFTRMALSAVNNTPELANCTPMSFIAALMNAAQLGLEPNTPLGQAYLIPYKNKGTLECQFQLGYKGLIDLAYRTGQIQIIQAQAVREFDYFEYQYGLDSRLVHKPGNEERGQITFIYGLFKLSNGGYGFEVSNKAEMDAFAAKYSKSFGSKYSPWTEDYESMAKKTVIKRALKYAPVSSDFQKALSLDETVKSEIAVDMSEIRNDCIPADMGTEAA | −5.320 | −7.323 | −1.345 | −3.318 | −0.536
SSAP_105: SEQ ID NO: 274; unclassified Lysinibacillus (protein, listed as Lysinibacillus sp.) ATTTDLKAQMQQAPATQQKPKTIDDYLKQMAPAMAQALPKHMDVDRLMRLAMTTIRTTPALKDADVSSLLGAVMQAAQLGLEPGLMGHCYLLPFKNNKKGITEVQFIIGYKGMIDLARRSGHIQSIYAHAVYQKDEFEYELGLDPKLKHKPCMDEDKGNFVGAYAVAHFKDGGYQFEFMSKAEIEKRKGRSKAANSTYSPWATDYEEMAKKTVVRHMWKYLPISVEMQQQVAYDEGTAPKREMKDITPETEFFVDAPEIEVEVVNE | −1.882 | −0.802 | −0.382 | −2.961 | −0.450
SSAP_51: SEQ ID NO: 220 (protein) AENEKQALLQEENKSENVVSTVKRTALATNPFSDTDQFNNIFKMAQLISQSDMIPATYKGKPMNCVIALEQANRMGVSPLMVMQNLYVVKGVPSWSGQGCMMIIQGCGKFRDVDYVYSGEKGTDSRSCKVVATRISDGKRIEGTEITMQMVKSEGWISNTKWKNMPEQMLGYRAATFFARMYCPNELNGFATEGEAEDMNHKPQRIEAINVLGDTAHE | −1.512 | −0.124 | −0.406 | −2.900 | −0.907
SSAP_163: SEQ ID NO: 332; Clostridium sp. Marseille-P3244 (protein, listed as Clostridium sp.) AARATNSVKEELAKKAETKAVGEKKLTRSMSIADLIKAMAPEIKKALPEVITPERFTRMALSALNTTPKLQECTQMSFLAALMNAAQLGLEPNTPLGQAYLIPFNNKGTMECQFQIGYKGLIDLGYRNPQMQIISAQAVYENDEFEYELGLNPKLEHRPALHDRGELRLFYGLFKLVNGGFGFEVMSKEAVDAYAKEYSKSFDSSFSPWKTNYEAMAKKTVIKQALKYAPIKADFRKALSTDETIKNEIAEDMSEIHGEDIFDAEYTEQTA | −0.742 | 1.362 | 1.914 | −2.847 | −0.374
SSAP_95: SEQ ID NO: 264; Proteus terrae (protein, listed as Proteus terrae) SNPPLAQADLQKTQGTEVREKTKDQMLVEFINKPNMKAQLAAALPRHMAPDRMIRIVTTEIRKTPELANCDMQSFVGAVVQCSQLGLEPGNALGHAYILPFEKKRKQGNQWVTVRTDAQLIIGYRGMIDLARRSGQIVSISARTVRQGDSFHFEYGLNENLTHVPGENEDSPITHVYAVARLKDGGVQFEVMTHNQIEKVRTSSKAGQNGPWVSHWEEMAKKTVIRRLFKYLPVSIEMQKAVILDEKAEANVDQENSSVFEGEFEEVGQGA | −1.672 | −0.020 | −0.011 | −3.325 | −0.539
SSAP_315: SEQ ID NO: 484; Pseudoalteromonas spongiae (protein, listed as Pseudoalteromonas spongiae) NKFQHLQTELSSQLLSTKERFNELNNKNNLKVNFEEEYNFFYHLVTSSFYNINGIATCTFSSLKEAFLNIAKYGLSINPKLNLCYIRTEQSCAQANVNIAVYDFGYKGLLKLITRTGKVKIVTADVFYENDNFEFRGTREPVKHSTKTLSAAARGAMAGGYCSSELVAGGVVTTIMTPEELREIESICQSTGNEAWNSVFIDELRRKTLIKRHWKTLMQVIEEQNLSVPIEETYQCDFANGGY | −2.321 | −1.578 | −0.629 | −3.063 | −2.608
SSAP_265: SEQ ID NO: 434; Clostridium coskatii (protein, listed as Clostridium coskatii) SDKKMVVLNESHTMLNKLLETKQEALPKDFNKARFLQNCMTVLQDTKGIEQCQPITVARTMLKGAFLGLDFFNKECYAIPYKDNLQFQTDYKGEIKLAKKYSFNPIKDIYAKIVRQGDDFQEAIINGQQTINFTPVPFNNGEIIGAFAVCLFQDGSMLYETMAKQEIENTRKNFSKAPNSPAWTKTPGEMYKKTVLRRLCKLIELDFDSVECKKVYNETSDFEFENQQHEVSNFDKKDIDEDKIVEADVEVQDDNENNVPEDGE | −2.057 | −0.932 | −0.510 | −3.182 | −0.478
SSAP_249: SEQ ID NO: 418; environmental Halophage eHP-30 (protein, environmental Halophage eHP-30) TEQNQTPAKTESKSPIKAQLYKDNVQQRFQELLGERASAFMTSVMSVVKDNDQLSQAEPSSVLNAAMTAATLDMPIDNNLGMAYIVPYKDGKSGKTYAQFQLGYKGFIQLAQRSGQFKTISATPVRQGQIVTADPLRGYEFDFTQGQDKEVVGYAAYFALLNGFEKTLYMSKAEMEQHAASYAAGYKKGYSNWNRKFDEMALKTVIKQLLSKYAPLSVDMQKAQQTDQTVSVEEPNAIEQQEAAPEIDASSNNNQNQ | −3.156 | −3.033 | −0.543 | −3.279 | −0.575
SSAP_234: SEQ ID NO: 403; Cellulosilyticum lentocellum (protein, listed as Cellulosilyticum lentocellum) SDKKELVLKETHSRLNQLLATKMEAMPKDFNQTRFLQNCMTVLQDTKGIENCHPVSIARTLLKGAFLGLDFFQRECYAIPYGGELQFQTDYKGETKMAKKYSIRDIKDIYAKVVRKGDEFKEEIVAGQQVVDFKPLPFNDAEIIGAFAVVLYQDGGMEYETMSTKQIEGIRDNFSKMKNGLMWTKTPEEAYKKTVLRRLTKKIEKDFASIDQAKAYEESSDMQFKQDEQKQDAKDPFADAVDVEFTEETEGQVRLDGEADGAK | −1.177 | 0.596 | 1.140 | −2.950 | −0.446
SSAP_320: SEQ ID NO: 489; Pseudoalteromonas sp. MQS005 (protein, listed as Pseudoalteromonas sp.) SISQQDYENLLYSKLYECESQYQAYLAEHNEKLNFNAELNYMYKAVMSGVGIEGGFPYTPLESIVESFLKAAKLGLSLDPSEQFCFLRSQYDHSTGLYHTELGLGYKGVLHLAYRSGKVKQIVSNVFYNKDNFQFNGPNSKVTHTMTVLSTSARGNLAGGYCQTELVDGSFIVTVMPPEEILAIEEQGKSVGNPAWLSAHVNQMREKTLILRHWKTLYPAIYSSSLLDSAQIFDDECEEFPFSSPSQGFSESQTIGSY | −2.305 | −1.322 | −0.932 | −3.288 | −0.449
SSAP_113: SEQ ID NO: 282; Acinetobacter sp. RIT592 (protein, listed as Acinetobacter sp.) ADLKNKLANKAAGTVTKTSPNAGMKQLMKSMSKEIEAALPSHMSSERFQRVALTAFGNNPKLMNCDPMSFIAAMMDSAQLGLEPNTPLGQAYLIPYGTKVQFQVGYKGLLELALRSGKIKTLYAHEVRENDTFEVKYGLHQDLIHEPVLKGNRGEVIGYYAVYHLDTGGHSFVFMTKDEVLEHAKGKSKTFNNGPWQTDFDAMAKKTVIKQLLKYAPLSIEMQKAVSSDETVKSKIDEDMSLVVDESDSIEANFEIKEDEDGQLDVYVK | −3.431 | −3.728 | −3.241 | −3.134 | −3.818
